The assay addresses Pseudomonas aeruginosa cytoplasmic heme binding protein PhuS, apo form (Pseudomonas aeruginosa). Nature of the assay: crystal structure.

In general, stoichiometry N refers to the number of molecules, sites or subunits per partner or assembly. Substance “Pseudomonas aeruginosa cytoplasmic heme binding protein PhuS, apo form (natural protein)” had a stoichiometry N of 2.

For the origin of these results see paper PMC3843485.
